Results from article PMC10866945 (2024).

Legend:
Spike protein NTD = Spike protein NTD (Severe acute respiratory syndrome …, UniProt P0DTC2); assay: ELISA
Spike protein RBD = Spike protein RBD (Severe acute respiratory syndrome …, UniProt P0DTC2); assay: ELISA

B1: Asialoglycoprotein receptor 1 (protein)
chain: MTKEYQDLQHLDNEESDHHQLRKGPPPPQPLLQRLCSGPRLLLLSLGLSLLLLVVVCVIGSQNSQLQEELRGLRETFSNFTASTEAQVKGLSTQGGNVGRKMKSLESQLEKQQKDLSEDHSSLLLHVKQFVSDLRSLSCQMAALQGNGSERTCCPVNWVEHERSCYWFSRSGKAWADADNYCRLEDAHLVVVTSWEEQKFVQHHIGPVNTWMGLHDQNGPWKWVDGTDYETGFKNWRPEQPDDWYGHGLGGGEDCAHFTDDGRWNDDVCQRPYRWVCETELDKASQEPPLL
Kd (Spike protein NTD): 179 nM | Kd (Spike protein RBD): 269 nM
